Biological target: T1, SipD^C244S (residues 39-343 C244S) (Salmonella, UniProt Q56026 39-343, C244S)
T1 sequence: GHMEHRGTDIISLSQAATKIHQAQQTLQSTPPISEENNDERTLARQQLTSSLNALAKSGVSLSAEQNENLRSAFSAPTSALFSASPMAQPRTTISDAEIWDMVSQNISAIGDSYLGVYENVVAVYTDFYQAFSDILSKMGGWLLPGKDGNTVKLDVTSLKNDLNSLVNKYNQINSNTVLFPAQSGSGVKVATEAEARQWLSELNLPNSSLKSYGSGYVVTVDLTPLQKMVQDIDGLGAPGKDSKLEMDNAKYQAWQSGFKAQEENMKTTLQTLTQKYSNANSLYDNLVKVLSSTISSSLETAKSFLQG
Assay: NMR titration

B1: SipB^11-232 (domain or fragment)
chain: SGYTQNPRLAEAAFEGVRKNTDFLKAADKAFKDVVATKAGDLKAGTKSGESAINTVGLKPPTDAAREKLSSEGQLTLLLGKLMTLLGDVSLSQLESRLAVWQAMIESQKEMGIQVSKEFQTALGEAQEATDLYEASIKKTDTAKSVYDAATKKLTQAQNKLQSLDPADPGYAQAEAAVEQAGKEATEAKEALDKATDATVKAGTDAKAKAEKADNILTKFQG
Question: Does B1 bind?
Answer: binds

Reference: article PMC5261137 (Proteins, 2016)
